Patent US11278600B2, “Human alpha-galactosidase variants” (Codexis, Inc., priority 2014, dated 2022)

Tests used:
Format in all cases: biochemical
[1] = HTP-analysis of supernatants pretreated with acid (MUGal hydrolysis); settings: activity of the variant/activity of Rd7BB (SEQ ID NO: 44); challenge at pH 3.5
Summary of the method: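 Fluorescence of MUGal hydrolysis (Ex. 355 nm, Em. 448 nm) is read after sodium carbonate quench. The enzyme source is INVSc1 yeast culture supernatant, first exposed to pH 3.3-4.3 McIlvaine buffer at 37° C. for 1-3 h, then reacted at pH 4.8 for 30-180 minutes.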

[2] = HTP-analysis of supernatants pretreated with base (MUGal hydrolysis); settings: activity of the variant/activity of Rd7BB (SEQ ID NO: 44); challenge at pH 7.5
Summary of the method: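 GLA variants were secreted by transformed INVSc1 yeast grown 66-84 h at 30° C. Supernatants were exposed to neutral-to-basic buffers (pH 7.0-9.7) at 37° C for 1-18 h, then assayed with MUGal in acidic citrate/McIlvaine buffer, with fluorescence read after quenching.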

[3] = HTP-analysis of yeast culture supernatants, no challenge (MUGal hydrolysis); settings: activity of the variant/activity of Rd7BB (SEQ ID NO: 44)
Summary of the method: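 GLA variants expressed in yeast INVSc1, secreted into SD-Ura broth over 66-84 h at 30° C; clarified supernatants tested without challenge. Supernatant mixed with McIlvaine buffer pH 4.8 and 2 mM MUGal (citrate/KCl, pH 4.6), 37° C for 30-180 min, carbonate-quenched, fluorescence Ex 355/Em 448 nm.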

Molecule	Relative Activity of GLA Variants After Challenge at pH 3.5 [1]	Relative Activity of GLA Variants After Challenge at pH 7.5 [2]	Relative Activity of GLA Variants After No Challenge (NC) [3]
671 (protein, Synthetic Polypeptide sequence of Variant No. 671 of mature Human GLA) LDNGLARTPPMGWLHWERFMCNLDCQEEPDSCISEKLFMEMAERMVTEGWKDAGYEYLCIDDCWMAPQRDSEGRLQADPQRFPHGIRQLANHVHSKGLKLGIYADVGNKTCAGFPGSFGYYDIDAQTFADWGVDLLKFDGCYCDSLENLADGYKHMSLALNRTGRPIVYSCEWPLYMWPFQKPNYTEIRQYCNHWRNFADIDDSWASIKSILDWTSRNQERIVDVAGPGGWNDPDMLVIGNFGLSWDQQVTQMALWAIMAAPLFMSNDLRAISPQAKALLQDKDVIAINQDPLGKQGYQLRKGDNFEVWERPLSGDAWAVAIINRQEIGGPRSYTIPVASLGKGVACNPACFITQLLPVKRQLGFYNATSRLKSHINPTGTVLLQLENTMQTSLKDLL	++ (>1.5 relative activity over Rd7BB (SEQ ID NO: 44))	+ (>0.5 to 1.5 relative activity over Rd7BB (SEQ ID NO: 44))	++ (>1.5 relative activity over Rd7BB (SEQ ID NO: 44))
676 (protein, Synthetic Polypeptide sequence of Variant No. 676 of mature Human GLA) LDNGLARTPTMGWLHWERFMCNLDCQEEPDSCISEKLFEEMAERMVTEGWKDAGYEYLCIDDCWMAPQRDSEGRLQADPQRFPHGIRQLANHVHSKGLKLGIYADVGNKTCAGFPGSFGYYDIDAQTFADWGVDLLKFDGCYCDSLENLADGYKHMSLALNRTGRPIVYSCEWPLYMWPFQKPNYTEIRQYCNHWRNFADIDDSWASIKSILDWTSRNQERIVDVAGPGGWNDPDMLVIGNFGLSWDQQVTQMALWAIMAAPLFMSNDLRAISPQAKALLQDKDVIAINQDPLGKQGYQLRKGDNFEVWERPLSGDAWAVAIINRQEIGGPRSYTIPVASLGKGVACNPACFITQLLPVKRQLGFYNATSRLKSHINPTGTVLLQLENTMQTSLKDLL	+ (>0.5 to 1.5 relative activity over Rd7BB (SEQ ID NO: 44))	+ (>0.5 to 1.5 relative activity over Rd7BB (SEQ ID NO: 44))	+ (>0.5 to 1.5 relative activity over Rd7BB (SEQ ID NO: 44))
677 (protein, Synthetic Polypeptide sequence of Variant No. 677 of mature Human GLA) LDNGLARTPTMGWLHWERFMCNLDCQEEPDSCISEKLFMEMAERMVTEGWKDAGYEYLCIDDCWMAPQRDSEGRLQADPQRFPHGIRQLANHVHSKGLKLGIYADVGNKTCAGFPGSFGYYDIDAQTFADWGVDLLKFDGCYCDSLENLADGYKHMSLALNRTGRPIVYSCEWPLYMWPFQKPNYTEIRQYCNHWRNFADIDDSWASIKSILDWTSRNQERIVDVAGPGGWNDPDMLVIGNFGLSWDQQVTQWALWAIMAAPLFMSNDLRAIDSQARALLQDKDVIAINQDPLGKQGYQLRKGDNFEVWERPLSGDAWAVAIINRQEIGGPRSYTIPVASLGKGVACNPACFITQLLPVKRQLGFYNWTSRLKSHINPTGTVLLQLENTMQTSLKDLL	+ (>0.5 to 1.5 relative activity over Rd7BB (SEQ ID NO: 44))	− (<0.5 relative activity to Rd7BB (SEQ ID NO: 44))	+ (>0.5 to 1.5 relative activity over Rd7BB (SEQ ID NO: 44))
672 (protein, Synthetic Polypeptide sequence of Variant No. 672 of mature Human GLA) LDNGLARTPTMGWLHWERFMCNLDCQEEPDSCISEKLFMEMAERMVTEGWKDAGYEYLCIDDCWMAPQRDSEGRLQADPQRFPHGIRQLANHVHSKGLKLGIYADVGNKTCAGFPGSFGYYDIDAQTFADWGVDLLKFDGCYCYSLENLADGYKHMSLALNRTGRPIVYSCEWPLYMWPFQKPNYTEIRQYCNHWRNFADIDDSWASIKSILDWTSRNQERIVDVAGPGGWNDPDMLVIGNFGLSWDQQVTQMALWAIMAAPLFMSNDLRAISPQAKALLQDKDVIAINQDPLGKQGYQLRKGDNFEVWERPLSGDAWAVAIINRQEIGGPRSYTIPVASLGKGVACNPACFITQLLPVKRQLGFYNWTSRLKSHINPTGTVLLQLENTMQTSLKDLL	+ (>0.5 to 1.5 relative activity over Rd7BB (SEQ ID NO: 44))	− (<0.5 relative activity to Rd7BB (SEQ ID NO: 44))	+ (>0.5 to 1.5 relative activity over Rd7BB (SEQ ID NO: 44))
675 (protein, Synthetic Polypeptide sequence of Variant No. 675 of mature Human GLA) LDNGLARTPTMGWLHWERFMCNLDCQEEPDSCISEKLFMEMAERMVTEGWKDAGYEYLCIDDCWVAPQRDSEGRLQADPQRFPHGIRQLANHVHSKGLKLGIYADVGNKTCAGFPGSFGYYDIDAQTFADWGVDLLKFDGCYCDSLENLADGYKHMSLALNRTGRPIVYSCEWPLYMWPFQKPNYTEIRQYCNHWRNFADIDDSWASIKSILDWTSRNQERIVDVAGPGGWNDPDMLVIGNFGLSWDQQVTQMALWAIMAAPLFMSNDLRAISPQAKALLQDKDVIAINQDPLGKQGYQLRKGDNFEVWERPLSGDAWAVAIINRQEIGGPRSYTIPVASLGKGVACNPACFITQLLPVKRQLGFYNWTSRLKSHINPTGTVLLQLENTMQTSLKDLL	+ (>0.5 to 1.5 relative activity over Rd7BB (SEQ ID NO: 44))	− (<0.5 relative activity to Rd7BB (SEQ ID NO: 44))	+ (>0.5 to 1.5 relative activity over Rd7BB (SEQ ID NO: 44))
640 (protein, Synthetic Polypeptide sequence of Variant No. 640 of mature Human GLA) LDNGLARTPPMGWLHWERFMCNLDCQEEPDSCISEKLFEEMADRMVTEGWKDAGYEYLCIDDCWMAPQRDSEGRLQADPQRFPHGIRQLANHVHSKGLKLGIYADVGNKTCAGFPGSFGYYDIDAQTFADWGVDLLKFDGCYCDSLENLADGYKHMSLALNRTGRPIVYSCEWPLYMWPFQKPNYTEIRQYCNHWRNFADIDDSWASIKSILDWTSRNQERIVDVAGPGGWNDPDMLVIGNFGLSWDQQVTQMALWAIMAAPLFMSNDLRAISPQAKALLQDKDVIAINQDPLGKQGYQLRKGDNFEVWERPLSGDAWAVAIINRQEIGGPRSYTIPVASLGKGVACNPACFITQLLPVKRQLGFYNWTSRLKSHINPTGTVLLQLENTMQTSLKDLL	+ (>0.5 to 1.5 relative activity over Rd7BB (SEQ ID NO: 44))	+ (>0.5 to 1.5 relative activity over Rd7BB (SEQ ID NO: 44))	+ (>0.5 to 1.5 relative activity over Rd7BB (SEQ ID NO: 44))
674 (protein, Synthetic Polypeptide sequence of Variant No. 674 of mature Human GLA) LDNGLARTPTMGWLHWERFMCNLDCQEEPDSCISEKLFMEMAERMVTEGWKDAGYEYLCIDDCWMAPQRDSEGRLQADPQRFPHGIRQLANHVHSKGLKLGIYADVGNKTCAGFPGSFGYYDIDAQTFADWGVDLLKFDGCYCDSLENLADGYKHMSLALNRTGRPIVYSCEWPLYMWPFQKPNYTEIRQYCNHWRNFADIDDSWASIKSILDWTSRNQERIVDVAGPGGWNDHDMLVIGNFGLSWDQQVTQMALWAIMAAPLFMSNDLRAISPQAKALLQDKDVIAINQDPLGKQGYQLRKGDNFEVWERPLSGDAWAVAIINRQEIGGPRSYTIPVASLGKGVACNPACFITQLLPVKRQLGFYNWTSRLKSHINPTGTVLLQLENTMQTSLKDLL	− (<0.5 relative activity to Rd7BB (SEQ ID NO: 44))	− (<0.5 relative activity to Rd7BB (SEQ ID NO: 44))	− (<0.5 relative activity to Rd7BB (SEQ ID NO: 44))
673 (protein, Synthetic Polypeptide sequence of Variant No. 673 of mature Human GLA) LDNGLARTPTMGWLHWERFMCNLDCQEEPDSCISEKLFMEMAERMVTEGWKDAGYEYLCIDDCWMAPQRDSEGRLQADPQRFPHGIRQLANHVHSKGLKLGIYADVGNKTCAGFPGSFGYYDIDAQTFADWGVDLLKFDGCYCDSLENLADGYKHMSLALNRTGRPIVYSCEWPLYMWPFQKPNYTEIRQYCNHWRNFADIDDSWASIKSILDWTSRNQERIVDVAGPGGWNDPDMLVIGNFGLSWDQQVTQMALWAIMAAPLFMSNDLRAISPQAKALLQDKDVIAINQDPLGKQGYQLRKGDNFEVWERPLSGDAWAVAIINRQEIGGPRSYTIPVASLGKGVACNPACFITQLLPVKRQLGFYNWTSRLKSHIYPTGTVLLQLENTMQTSLKDLL	+ (>0.5 to 1.5 relative activity over Rd7BB (SEQ ID NO: 44))	− (<0.5 relative activity to Rd7BB (SEQ ID NO: 44))	+ (>0.5 to 1.5 relative activity over Rd7BB (SEQ ID NO: 44))
